Values of other authors in publication PMC6478124.
pKd: −log10 of the molar value.

Biological target: HDM2 (Homo sapiens) (UniProt Q00987)
Sequence (Q00987 whole entry): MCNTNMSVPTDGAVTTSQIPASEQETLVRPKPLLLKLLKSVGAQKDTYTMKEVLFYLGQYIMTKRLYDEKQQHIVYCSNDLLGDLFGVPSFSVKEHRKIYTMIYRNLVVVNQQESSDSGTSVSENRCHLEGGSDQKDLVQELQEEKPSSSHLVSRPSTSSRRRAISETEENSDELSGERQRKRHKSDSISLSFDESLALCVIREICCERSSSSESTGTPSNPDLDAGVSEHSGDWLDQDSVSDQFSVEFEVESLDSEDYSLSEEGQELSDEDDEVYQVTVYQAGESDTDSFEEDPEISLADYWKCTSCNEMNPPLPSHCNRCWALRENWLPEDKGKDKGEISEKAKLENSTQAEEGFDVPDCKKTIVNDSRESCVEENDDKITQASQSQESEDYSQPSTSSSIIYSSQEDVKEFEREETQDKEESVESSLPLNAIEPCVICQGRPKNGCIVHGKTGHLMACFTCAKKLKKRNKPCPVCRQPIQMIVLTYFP

pKd: 8.17
Substance: stapled p53 transactivation domain peptide transactivation domain α-helix (from UniProt P04637)
